Data on two molecules can be found in PMC5490192, “An L-threonine transaldolase is required for L-threo-β-hydroxy-α-amino acid assembly during obafluorin biosynthesis” (Nature Communications, 2017).

Data set [1] concerns the target T1, His6-ObaG (Pseudomonas fluorescens, UniProt A0A1X9LWZ7).
T1 construct: gene obiH
T1 sequence (A0A1X9LWZ7 1-440): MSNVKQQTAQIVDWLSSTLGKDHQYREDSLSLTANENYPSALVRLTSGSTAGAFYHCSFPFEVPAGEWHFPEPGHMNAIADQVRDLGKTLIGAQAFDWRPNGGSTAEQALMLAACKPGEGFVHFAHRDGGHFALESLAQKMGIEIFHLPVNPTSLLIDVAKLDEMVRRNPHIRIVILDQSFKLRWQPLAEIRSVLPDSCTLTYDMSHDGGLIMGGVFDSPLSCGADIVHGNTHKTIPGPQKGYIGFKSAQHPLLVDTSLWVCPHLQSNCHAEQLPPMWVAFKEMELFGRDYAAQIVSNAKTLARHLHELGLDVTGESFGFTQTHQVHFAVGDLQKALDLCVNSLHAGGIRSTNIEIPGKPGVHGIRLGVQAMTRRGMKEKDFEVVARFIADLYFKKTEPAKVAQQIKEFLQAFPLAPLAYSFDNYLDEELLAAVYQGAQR
Kind of data set: UV/Vis absorption spectra; NaBH4 reduction of internal aldimine. The class given is binding. As to conditions: covalent (internal aldimine); pH 7.8; excess PLP removed.

Substrate in data set [2]: C[C@@H](O)[C@H](N)C(=O)O
Briefly: discontinuous HPLC L-TTA assay, Michaelis-Menten fit. The conditions noted are these: co-substrate 4-nitrophenylacetaldehyde (10 mM in standard assay), L-threonine 1–200 mM, 25 μM enzyme, pH 7.8, 27 °C, PLP 0.4 mM, MgCl2 15 mM, NaCl 300 mM. Format: biochemical, Pseudomonas fluorescens.

For the molecule `Cc1ncc(COP(=O)(O)O)c(C=O)c1O` [pyridoxal-5′-phosphate], in data set [1], the “UV/Vis absorption spectra; NaBH4 reduction of internal aldimine” value is “these results strongly support ObaG being a PLP-dependent enzyme”.

B1: His6-ObaG (Pseudomonas fluorescens) (protein)
chain: MSNVKQQTAQIVDWLSSTLGKDHQYREDSLSLTANENYPSALVRLTSGSTAGAFYHCSFPFEVPAGEWHFPEPGHMNAIADQVRDLGKTLIGAQAFDWRPNGGSTAEQALMLAACKPGEGFVHFAHRDGGHFALESLAQKMGIEIFHLPVNPTSLLIDVAKLDEMVRRNPHIRIVILDQSFKLRWQPLAEIRSVLPDSCTLTYDMSHDGGLIMGGVFDSPLSCGADIVHGNTHKTIPGPQKGYIGFKSAQHPLLVDTSLWVCPHLQSNCHAEQLPPMWVAFKEMELFGRDYAAQIVSNAKTLARHLHELGLDVTGESFGFTQTHQVHFAVGDLQKALDLCVNSLHAGGIRSTNIEIPGKPGVHGIRLGVQAMTRRGMKEKDFEVVARFIADLYFKKTEPAKVAQQIKEFLQAFPLAPLAYSFDNYLDEELLAAVYQGAQR
Turning to B1, in data set [2], the Km is 40.2 ± 3.8 mM and the kcat worked out at 1.05 ± 0.0317 s⁻¹.
